B1: POU domain, class 3, transcription factor 3, residues 408 to 463; numbered along this chain, P20264 (parent)
chain: KKRTSIEVSVKGALESHFLKCPKPSAQEITNLADSLQLEKEVVRVWFCNRRQKEKR

Variants of: B1
Assay: abundance fitness (aPCA) (normalised: wild type 0, dead -1); higher = more abundant; growth selection in yeast, the domain comes from the species named
Conditions: Homo sapiens

Abundance fitness of substitutions, site by site:
I6: V -0.093, K -0.051, F -0.272, S -0.077, R -0.108, W -0.124, D -0.135, Q -0.084, G -0.071, Y -0.189, A -0.015, P 0.01, N -0.234, E -0.091, T 0.058
K1: I -0.181, A -0.075, S -0.154, D -0.124, V -0.092, Q -0.271, R -0.263, N -0.072, G -0.067, Y -0.258, W -0.15, L -0.756, M -0.333, C -0.104
K11: Q -0.015, P -0.024, W -0.116, F -0.186, G -0.135, C -0.141, M -0.006, H -0.04, Y 0.067, N -0.27, A -0.099, V -0.085, R -0.045, I -0.006
S5: G -0.008, Y 0.206, D -0.064, M 0.125, K 0.097, N 0.193, T 0.135, P 0.132, W -0.255, A 0.086, H 0.175, Q 0.203, C 0.128, E -0.047
K2: H -0.38, R -0.086, Y -0.391, G -0.025, F 0.056, P -0.305, W -0.321, M -0.066, S -0.077, E -0.054, D -0.098, I -0.374, T -0.008, N -0.094, C -0.332, A -0.13, V -0.048, Q -0.255
V10: D 0.176, N -0.148, R -0.108, P -0.472, G -0.241, Y -0.129, Q 0.07, I -0.066, L -0.042, M -0.192, E 0.154, A -0.005, K -0.032, C -0.108, H 0.072, T -0.023, F -0.291, S -0.153
R3: V 0.031, T -0.077, G 0.04, C -0.415, K 0.067, L 0.055, I -0.023, Q -0.217, W -0.155, A -0.15, S 0.026, M 0.045, F -0.119, P -0.2, H -0.273, N -0.048, Y -0.267
E7: P 0.167, W -0.436, A -0.096, V -0.197, D 0.05, Q -0.035, G 0.013, K 0.028, R -0.057, I -0.157, L -0.09, Y -0.3, F -0.263, N 0.063, S 0.144, H -0.016, M -0.035, T 0.134
S9: I -0.368, Q 0.067, N 0.166, F -0.285, V -0.132, D 0.038, H 0.092, T -0.051, G 0.027, E 0.072, W -0.192, A 0.054, Y -0.015, C -0.247, M -0.305, P -0.068, R -0.018, K 0.01, L -0.206
G12: Q -0.094, K -0.035, R 0.007, C 0.096, A 0.227, D 0.048, Y 0.103, N 0.11, T 0.078, H -0.009, M 0.161, E 0.111, V 0.211, I 0.051, P -0.056, W -0.25, L 0.104, F -0.054
V8: F 0.04, C -0.171

Source: the Human Domainome abundance scans (Beltran et al. 2025)
